Reference: article PMC11667166
Read-outs that look alike come from different tables or passages of the source.

CD320: N195Q
localisation_or_trafficking (N-glycosylation at N195): no change

CD320: N213Q
localisation_or_trafficking (N-glycosylation at N213): no change

CD320: N126Q/N195Q/N213Q (QQQ)
localisation_or_trafficking (N-glycosylation at N126): no change | localisation_or_trafficking (N-glycosylation at N195): no change | localisation_or_trafficking (N-glycosylation at N213): no change

CD320: N126Q
localisation_or_trafficking (N-glycosylation at N126): no change
